Experimental findings from US20050014224A1 (Pfizer, published 2005) are described below.

Sequences and labels used below:
B2: mouse GITR (glucocorticoid-induced TNF receptor) (receptor, UniProt O35714 20-228, looked up)
chain: QPSVVEEPGCGPGKVQNGSGNNTRCCSLYAPGKEDCPKERCICVTPEYHCGDPQCKICKHYPCQPGQRVESQGDIVFGFRCVACAMGTFSAGRDGHCRLWTNCSQFGFLTMFPGNKTHNAVCIPEPLPTEQYGHLTVIFLVMAACIFFLTTVQLGLHIWQLRRQHMCPRETQPFAEVQLSAEDACSFQFPEEERGEQTEEKCHLGGRWP
notes: whole, on cells; endogenous on mouse T cells and HT-2 cells in the functional assays; also called cell-surface GITR

Assay [1] has as its target mouse GITRL expressed on cells (mouse) (UniProt Q7TS55). As to the kind of experiment: flow cytometry on GITRL-Cos cells, FITC donkey antihuman antibody. A general note: A flow cytometer gives signals particle by particle.
Assay [2] addresses B2. As to the kind of experiment: cell-based or functional assay.
Assay [3] deals with T1, control mouse IL-21 receptor fused to the FLAG epitope, expressed on Cos cells (mouse, UniProt Q9JHX3 20-529).
T1 construct: whole, on cells; also called IL-21R-Flag-Cos
As to the kind of experiment: cell-cell binding by flow cytometry (PE anti-FLAG / FITC anti-GITR). The text has this:
Cell-cell interaction was detected by flow cytometry using phycoerythrin-labeled anti-Flag antibody (PE-FLAG) and fluorescein isothiocyanate (FITC)-labeled anti-GITR.

T1 sequence (Q9JHX3 20-529): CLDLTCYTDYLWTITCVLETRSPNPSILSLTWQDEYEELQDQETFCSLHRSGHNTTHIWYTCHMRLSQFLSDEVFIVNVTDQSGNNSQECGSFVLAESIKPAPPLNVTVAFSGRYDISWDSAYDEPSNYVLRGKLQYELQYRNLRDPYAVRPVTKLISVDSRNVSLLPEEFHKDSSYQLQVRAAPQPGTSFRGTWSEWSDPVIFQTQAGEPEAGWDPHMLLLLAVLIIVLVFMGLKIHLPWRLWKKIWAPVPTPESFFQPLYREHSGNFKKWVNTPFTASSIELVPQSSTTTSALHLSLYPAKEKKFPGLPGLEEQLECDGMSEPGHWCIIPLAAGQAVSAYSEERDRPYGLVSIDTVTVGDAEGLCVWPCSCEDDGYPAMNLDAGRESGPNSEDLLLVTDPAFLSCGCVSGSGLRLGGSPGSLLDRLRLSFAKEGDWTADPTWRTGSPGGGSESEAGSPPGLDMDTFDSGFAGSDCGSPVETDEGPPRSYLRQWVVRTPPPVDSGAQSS

Turning to control human IgG (antibody), the FITC-Ab binding in assay [1] is 7.9%.

For “recombinant GITR fused to the Fc portion of human IgG (Fc fusion)”, in assay [1], the FITC-Ab binding was determined as 28.8% and the fold increase in FITC-Ab binding compared to control HIgG worked out at 3.6 fold.

B1: mouse GITRL expressed on cells (ligand)
chain: MEEMPLRESSPQRAERCKKSWLLCIVALLLMLLCSLGTLIYTSLKPTAIESCMVKFELSSSKWHMTSPKPHCVNTTSDGKLKILQSGTYLIYGQVIPVDKKYIKDNAPFVVQIYKKNDVLQTLMNDFQILPIGGVYELHAGDNIYLKFNSKDHIQKNNTYWGIILMPDLPFIS
Consider B1, for which the “^3H-thymidine incorporation of CD4^+CD25^+ T cells, fold increase over unmodified YB2/0 cells (˜50,000 cells)” value in assay [2] was about 15 fold.

Regarding B2, in assay [3], the binding result is listed as “no binding”.
